B1: SERPINB5 (parent)
chain: FPESETKECPFRVNKVCGAACSSK
B2: TRIM43 (parent)
chain: YQEIFQQLQRSWVKMDQKSKHLKE

Variants of: B1
Experiment: protein stability index of a GFP-peptide fusion (GPS, HEK-293T) (PSI 1-6); higher = more stable
Conditions: c terminus: a fixed tail appended
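Also: lentivirally expressed fusions sorted by FACS into six bins by GFP to DsRed ratio, PSI derived from sequencing read proportions per bin multiplied by bin number.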

Protein stability index of substitutions, site by site:
V16: I 2.04, A 3.03, F 2.57, K 2.61, H 2.17
K7: T 3.1, P 2.76, S 2.69
C21: V 2.56, D 2.81, K 3.19
T6: H 2.56, M 2.63, F 2.23
F1: V 4.5, H 4.54, L 4.93, S 5.08, Y 3.41, P 4.52, R 4.65
N14: F 2.15, M 2.98, C 2.69
R12: W 2.87
C17: V 2.88, M 2.49
A19: L 2.96
K24: E 2.96, P 2.21, M 2, F 2.02
V13: W 2.19, N 3.71
S4: G 2.25
S23: L 2.4, E 3.16, P 2.39
S22: T 2.39, W 2.03, Q 2.66
P10: N 4.02, G 4.1, I 2.53, V 3.05, L 2.14, A 2.95, C 3.05
P2: N 3.63
A20: V 2.67, P 2.49, F 1.95
F11: V 4.25, S 5.28, Q 5.04
E3: K 2.09, R 1.71, I 1.86, T 1.43
K15: M 2.38, D 3.01, C 3.04
E5: C 1.72, S 1.97, L 1.78
E8: P 2.29, R 1.82

Variants of: B2
Experiment: as above
Conditions: c terminus: a fixed tail appended

Protein stability index, by site and new letter:
Q6: E 2.95, L 1.55, H 2.17, F 1.93, I 2.27, K 1.85, D 2.74, V 1.85, Y 2.65, A 2.04, P 2.28, N 2.21, T 2.8, W 2.03, M 2.49, C 2.07, R 2.63, G 2.52, S 2.19
Y1: W 3.04, K 3.46, F 1.58, V 1.29, T 2.88, E 4.08, Q 3.35, H 3.7, R 2.96, A 1.86, N 3.73, D 4.53, P 3.04, C 1.56, S 3.7, G 3.82, L 1.5, I 2.04, M 1.99
K14: H 2.04, C 1.97, T 2.25, L 2.44, Y 2.2, P 2.19, V 2.18, F 2.35, D 2.77, R 1.94, W 2.61, M 2.37, S 2.1, A 2.1, Q 2.36, N 2.99, G 2.6, I 1.86, E 2.92
F5: D 4.05, R 3.15, A 2.94, K 3.17, Q 3.7, I 1.7, C 2.69, E 4.52, P 2.79, H 3.65, T 3.29, G 3.31, W 2.19, S 3.39, V 2.82, M 2.22, L 2.65, Y 2.57, N 3.47
Q9: A 1.83, N 2.25, T 2.19, I 1.71, S 2.58, E 2.72, L 1.83, C 1.4, G 2.59, Y 2.67, W 2.39, P 2.73, R 3.11, H 1.95, V 1.88, M 2.32, F 2.23, D 2.6, K 1.88
M15: A 2.37, C 2.32
Q2: Y 1.72, W 2.3, D 2.64, R 1.56, N 2.14, K 2.19, S 1.22, I 1.52, C 2.36, P 2.15, T 2.18, G 1.66, E 3.44, H 1.58, M 1.82, A 1.84, V 1.72, F 1.55, L 1.67
E3: L 1.79, Q 1.63, M 2.13, R 3.7, N 1.58, D 2.18, P 1.69, G 1.35, Y 2.39, K 1.76, W 1.68, A 2.23, F 1.53, T 1.52, H 2.47, S 2.11, I 2.29, V 1.93, C 2.13
R10: I 2.95, L 2.4, S 2.71, A 2.74, G 3.03, V 2.26, Y 1.79, T 1.94, K 2.12, W 1.89, M 2.57, H 2.27, C 1.96, P 2.55, D 2.99, N 2.84, F 1.78, E 2.66, Q 2.35
I4: M 1.51, Q 1.85, E 1.78, G 1.01, S 1.94, R 2.05, W 2.94, V 2.16, H 1.85, N 1.61, P 1.93, Y 1.5, L 2.19, F 1.8, C 1.44, A 1.98, K 1.87, D 1.47, T 1.96
S11: Y 2.65, L 2.21, P 2.3, T 1.81, W 1.56, R 1.82, M 1.93, N 2.73, C 1.97, H 2.18, V 1.63, A 1.34, K 1.93, Q 1.8, D 2.68, I 2.57, G 2.1, E 1.75
V13: E 3.48, F 2.07, R 1.53, N 2.22, K 2.3, C 2.02, M 1.9, G 2.79, W 1.16, L 1.92, H 2.48, P 2.62, Y 2.21, S 2.38, D 2.54, Q 2.2, T 2.08, I 2.14, A 2.04
W12: M 2.42, F 2.57, Q 2.65, R 3.12, D 2.78, H 2.5, G 2.84, I 2.29, K 2.7, L 2.4, V 2.69, Y 2.18, P 3.48, E 3.16, A 3.07, S 2.55, N 2.81, C 2.34, T 2.88
Q7: V 1.65, S 2.89, F 1.52, I 2.08, D 2.79, E 2.52, N 2.23, T 1.82, H 2.42, P 2.28, Y 2.53, W 3.41, R 1.66, G 2.59, C 1.94, A 1.87, L 2.11, M 2.13, K 1.61
L8: I 1.97, M 2.66, F 2.62, A 2.78, E 3.06, Q 2.88, R 3.03, T 3.24, P 2.06, C 2.44, Y 2.66, H 3.06, S 2.58, G 2.74, V 2.09, D 2.71, N 2.87, W 2.85, K 3.1

— the supplement of paper PMC10567573
